By Kd is commonly meant the equilibrium constant for the complex coming apart. Read a high Kd as lower affinity. What is called koff is a measure of how fast the partners let go of each other. Higher therefore signals a short-lived complex. What is called kon is the rate constant with which the complex forms. Read a low kon as slower complex formation.

The text below walks through data of patent US20150110794A1 (CELL SIGNALING TECHNOLOGY, published 2015).

Residue numbers refer to the chain shown, from its start.

B1: C11 (antibody, V domains shown)
VH: EVQLLESGGGLIQPGGSLRLSCVASGFTFTRHAINWVRQAPGKGLEWVSAISGSGSSTYYADSVKGRFTISRDNAKNTLYLQMNRLRVEDTAVYYCAKDKDYGMVAATPDAFDIWGQGTMVTVSS
VL: QSVLTQPPSVSAAPGQKVTISCSGSRSNIAKNYVYWYQQLPGTAPKLLIYDTNKRPSGIPDRFSGSKSGTSATLAITGLQTGDEADYYCGTWDSSLKTAIFFGGGTTVTVLG
notes: Human IgG, transiently expressed in HEK293
B2: C6 (antibody, V domains shown)
VH: QVQLQESGPGLVKPLETLSLTCTVSGGSISSGSFYWTWIRQHPGKGLEWIGYIHSSGTTYYNPSLKSRLNISRDTSKNQFTLKLSSVTAADTAVYYCAKEIIQWPRRWFDPWGQGTLVTVSS
VL: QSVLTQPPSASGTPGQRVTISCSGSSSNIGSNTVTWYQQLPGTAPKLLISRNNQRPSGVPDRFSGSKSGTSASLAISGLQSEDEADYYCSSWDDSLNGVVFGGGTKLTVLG
notes: as for B1
B3: C3 (antibody, V domains shown)
VH: B2 VH
VL: QSMLTQPPSVSAAPGQKVIISCSGSSSNIGNNYVNWYQQLPGTAPKLLIYDNDKRPSGIPDRFSGSKSGTSATLGITGLQTGDEADYYCGTWDSTLTAGVFGGGTKLTVLG
notes: as for B1
B4: C8 (antibody, V domains shown)
VH: B2 VH
VL: B1 VL with A30G, T52N, A99G, T107K, V108L
notes: as for B1
B5: C7 (antibody, V domains shown)
VH: B2 VH
VL: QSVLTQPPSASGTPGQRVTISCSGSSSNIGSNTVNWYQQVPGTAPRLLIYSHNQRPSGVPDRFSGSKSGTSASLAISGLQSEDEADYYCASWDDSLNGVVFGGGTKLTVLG
notes: as for B1
B6: C9 (antibody, V domains shown)
VH: B2 VH
VL: B1 VL
notes: as for B1
B7: C4 (antibody, V domains shown)
VH: B2 VH
VL: B3 VL with M3V, S26G, N31S, N32H, T43A, G75A, Y88H, G90A, S94G
notes: as for B1
B8: C10 (antibody, V domains shown)
VH: B2 VH
VL: QSVLTQPPSASGTPGQRVTISCSGSSSNIGSNYIDWYQQLPGTGPQLLTYRNNQRPSGVPDRFSGSKSGTSASLAISGLRSEDEADYYCASWDDSLSSPVFGGGTKLTVLG
notes: as for B1
B9: C5 (antibody, V domains shown)
VH: B2 VH
VL: B3 VL with Y33F, Q39K, L40F, D86E, T95S, K106T
notes: as for B1
B10: C15 (antibody, V domains shown)
VH: EMQLLESGGGLVQPGGSLRVSCAASGFTFSSHAMSWVRQAPGKGLEWVSSISRSGDNTFYADSVKGRFTISRDNIKSTVYLQMNSLRAEDTAVYFCASRYTEGDSVWYFDVWGRGTLVTVSS
VL: EVVLTQSPATLSVSAGDRATLSCRASQSVSRDLAWYQQKPGQAPRLLIYGASTRATDIPVRFSGSGSGTEFSLTISSLQSEDFAVYYCHQYKHWPRTFGQGTKVEIKR
notes: as for B1
B11: C12 (antibody, V domains shown)
VH: QVQLQESGPGLVKPLETLSLTCTVSGGSIRGGDYWWTWVRQPPGKGLEWLGYIYRTGSTYYNPSLKSRLTISLDTSKNHFSLKLASATAADTAVYYCARDPGDDSGGNSGLDYWGQGVLVSVSS
VL: B3 VL with Y33F, Q39K, L40F, D86E, T95S, K106T
notes: as for B1

The target in one experiment is T1, AD4 polypeptide (cloned AD4 fragment of CMV AD169 envelope glycoprotein B) (human cytomegalovirus strain AD169, UniProt P06473 112-438).
T1 construct: also called antigenic domain 4
The experiment is described as follows: SPR (Biacore T200), antibody captured on anti-human IgG CM5 chip, AD4 polypeptide as analyte, 1:1 model.
For the molecule B1, binding was characterised by a dissociation constant (Kd) of 5.67 nM, the koff stood at 0.00109 s⁻¹ and the kon came to 192000 M⁻¹ s⁻¹.

The molecule B2 returned a Kd of 2.5 nM, a koff of 0.00138 s⁻¹ and a kon of 554000 M⁻¹ s⁻¹.

In turn, B3 gave a Kd of 0.549 nM, a koff of 0.00068 s⁻¹ and a kon of 1.24e+06 M⁻¹ s⁻¹.

Molecule B4 returned a Kd of 4.49 nM, a koff of 0.00186 s⁻¹ and a kon of 414000 M⁻¹ s⁻¹.

Take B5: the Kd amounted to 7.76 nM, the koff was determined as 0.00604 s⁻¹ and the on-rate (kon) was found to be 779000 M⁻¹ s⁻¹.

B6 had a Kd of 3.95 nM, a koff of 0.00238 s⁻¹ and a kon of 602000 M⁻¹ s⁻¹.

With B7, binding was characterised by a dissociation constant (Kd) of 0.695 nM, the koff was 0.00063 s⁻¹ and the kon stood at 908000 M⁻¹ s⁻¹.

For the molecule B8, the Kd came out at 3.97 nM, the off-rate (koff) turned out to be 0.00197 s⁻¹ and the kon is 496000 M⁻¹ s⁻¹.

With B9, the equilibrium dissociation constant (Kd) is 0.278 nM, the koff worked out at 0.000201 s⁻¹ and the kon amounted to 721000 M⁻¹ s⁻¹.

For the molecule B10, the Kd is 6.44 nM, the koff was determined as 0.00234 s⁻¹ and the kon came out at 363000 M⁻¹ s⁻¹.

Consider B11, for which the Kd came out at 3.27 nM, the dissociation rate constant (koff) was found to be 0.00369 s⁻¹ and the kon is 1.13e+06 M⁻¹ s⁻¹.

The target of another experiment is CMV AD169 envelope glycoprotein B (gB) (human cytomegalovirus strain AD169, UniProt P06473 32-906). Description: cell-based or functional assay.
For the molecule B1, the “CMV Neutr. IC50” value was > 50 µg/mL.

B2: the “CMV Neutr. IC50” value was < 2 µg/mL.

Take B3: the “CMV Neutr. IC50” value is < 0.07 µg/mL.

B4: the “CMV Neutr. IC50” value is > 50 µg/mL.

Regarding B5, the “CMV Neutr. IC50” value is > 50 µg/mL.

As for B6, the “CMV Neutr. IC50” value was > 50 µg/mL.

For the molecule B7, the “CMV Neutr. IC50” value was < 0.04 µg/mL.

For the molecule B8, the “CMV Neutr. IC50” value was > 50 µg/mL.

Take B9: the “CMV Neutr. IC50” value is < 6 µg/mL.

For the molecule B10, the “CMV Neutr. IC50” value was < 0.3 µg/mL.

Consider B11, for which the “CMV Neutr. IC50” value was > 50 µg/mL.
